# The supplement of paper PMC9170038
# Tested on: MS2 coat protein
# Assay: apparent KD of MS2 coat protein; designed switch direction (-1 OFF switch, 1 ON switch): -1; higher = weaker reporter binding
# Procedure, shortened: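 Designed RNA switches with common flanks were made on Illumina chips by stalled E. coli RNA polymerase. Titration with SNAP-549-labelled MS2 coat protein doubled from 0.7 or 1.5 nM up to 3 µM. Apparent KD is each design's median over clusters after curve-fitting normalised fluorescence.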
# [1] = Eterna round: R95, input ligand: FMN 200 uM
# [2] = Eterna round: R95, input ligand: microRNA oligo, concentration not stated
# [3] = Eterna round: R95, input ligand: none
# [4] = input ligand: microRNA oligo, concentration not stated
Sequence,apparent KD of MS2 coat protein [1],apparent KD of MS2 coat protein [2],apparent KD of MS2 coat protein [3],apparent KD of MS2 coat protein (input ligand: FMN 200 uM),apparent KD of MS2 coat protein [4],apparent KD of MS2 coat protein (input ligand: none)
"GACUAAAUUUUGUUUGGUUACAUGAGGAUCACCCAUGUUGGUCUAAGAACAUGUCUUUUGUACGCUUGUCUUAUAUA [JR_SV3TOV1_Sub068] (puzzle: Sensor v3, turn-off variant 1)",76.6 nM,45.8 nM,96.3 nM,–,–,–
GACUAGGCAGGAUAUACAUGAGGAUCACCCAUGUGUCUGCGAUAGGCACGUGAUUACUGUAGAAGGGCCUUGAC [Exclusion 3 - mod of a parushev design] (puzzle: Exclusion 3),–,204 nM,–,–,–,–
"GACUAGGCAGGAUAUACAUGAGGAUCACCCAUGUGUCUGCGUUGGGCACGUGAACACCGUAGAAGGGCCUUGAC [ChP 13.04.2015 #14] (Eterna round: R96, puzzle: Exclusion 3)",–,–,–,36.4 nM,16.2 nM,20.2 nM
GACUAGGCAGGAUAUACAUGAGGAUCACCCAUGUGUCUGCGUUGGGCACGUGAACACCGUAGAAGGGCCUUGAC [ChP 13.04.2015 #14] (puzzle: Exclusion 3),–,14.4 nM,–,–,–,–
"GAGAAAUGUGUUAGGAUAUCCCGCUAAAGCAGAUAGGAGAAGGAACAUGAGGAUCACCCAUGUAGGGAGGGCCA [Eternabot (Original) Solution 17] (Eterna round: R97, puzzle: Brourd's mod of Exclusion 4)",–,–,–,192 nM,–,67 nM
GAGAAGGUAGGAUAUACGAAUAAAUAGGGUAGUAAUAAUACACAUGAGGAUCACCCAUGUAGAAGGACCAAGAG [Mat - Exclusion 2 - Mod of my Tesla design - D39] (puzzle: Exclusion 2),38.1 nM,22.8 nM,25 nM,–,–,–
"GAGAGAAUCUAGGAUAUAUCAAGAGAAGGAGAGAUAGAAGGAGAGACAUGAGGAUCACCCAUGUCUUCGUGUAG [Default title] (Eterna round: R97, puzzle: Exclusion 6)",–,–,–,16.6 nM,–,15.8 nM
"GAGAGGAGUGUAGGAUAUUUAAGGGAGGAGGAGGGAGAAGGACAUGAGGAUCACCCAUGUAGGAAGAGAGGAGGAGUACAGGAG [Default title] (Eterna round: R96, puzzle: Exclusion NG 1)",–,–,–,46.1 nM,19.3 nM,32.3 nM
"GAGCCAUCGUGAGAUGGCUAAUAUACAUGAGGAUCACCCAUGUAGGAUAUCGAUUGCUUUGCAGUCGAGAAGGACAUGUUUAAU [JL ENG3 3.97] (Eterna round: R96, puzzle: Exclusion NG 3)",–,–,–,67.4 nM,26.7 nM,33.7 nM
GAGGAACAUGAGGAUCACCCAUGUGAGGAUAUGCAUAGUGAGGUAGUAGAAGUUGAAUGCAGAAGGUACACUGA [JR_Exclu1_Sub077] (puzzle: Exclusion 1),–,39 nM,–,–,–,–
GAGGGACAUGAGGAUCACCCAUGUGAGGAUAUGUGAGAAGGAUUGGAGAGAAAAGGAAACAGAAGGCGCGGGAG [JR_Exclu1_Sub086] (puzzle: Exclusion 1),59.5 nM,50.9 nM,54.7 nM,–,–,–
"GAGGUGGGUUUUCAGAGUAACAUGAGGAUCACCCAUGUAGAAGUUGAAGGUAUCAAGCGAAUGGCUCGUCAAAUGUG [JR_SV3TOV1_Sub048] (puzzle: Sensor v3, turn-off variant 1)",135 nM,171 nM,233 nM,–,–,–
GAGGUGUUAGGAUAUCGGAGAUGGAGAAGAACGGGAAGAGCCGAGAAGGAACAUGAGGAUCACCCAUGUAGGUG [JR_Exclu4_Sub030] (puzzle: Exclusion 4),326 nM,270 nM,696 nM,–,–,–
"GAGUACUGAGGAUAUACAUGAGGAUCACCCAUGUGUUCCAGCUAGGAAACUAGCAAAAGUAGAAGGCAGUACUG [salish99_ex3_r3_084] (Eterna round: R96, puzzle: Exclusion 3)",–,–,–,311 nM,19.3 nM,23.2 nM
GAGUACUGAGGAUAUACAUGAGGAUCACCCAUGUGUUCCAGCUAGGAAACUAGCAAAAGUAGAAGGCAGUACUG [salish99_ex3_r3_084] (puzzle: Exclusion 3),–,18.9 nM,–,–,–,–
GAGUAGCUAGGAUAUCGAAAACAUCACAUGAGGAUCACCCAUGUGCCGGGUGCUCAGAUGCGAGAAGGAGCAAAGA [Reatququ] (puzzle: Exclusion 5),219 nM,131 nM,175 nM,–,–,–

Sequence,apparent KD of MS2 coat protein [1],apparent KD of MS2 coat protein [2],apparent KD of MS2 coat protein [3],apparent KD of MS2 coat protein (input ligand: FMN 200 uM),apparent KD of MS2 coat protein [4],apparent KD of MS2 coat protein (input ligand: none)
"GAGUAGUAAGGAUAUGUCUCUGGUGGCUACGGUCACUAGAGGCAGAAGGUACAUGAGGAUCACCCAUGUUUCUC [ExDelusion 9 - Jieux - Exclusion 4] (Eterna round: R97, puzzle: Exclusion 4)",–,–,–,83.1 nM,–,39.2 nM
"GAGUAGUGAGGAUAUGCAAUGAUCAUCGUACGAUGAGGCUGACAUGAGGAUCACCCAUGUAGAAGGCGCUGAUC [EX2 #18] (Eterna round: R97, puzzle: Exclusion 2)",–,–,–,57.3 nM,–,75.2 nM
GAGUGACAUGAGGAUCACCCAUGUGAGGAUAUGCGACGGACCAAAUUAACAAUAGAAGGCAGAAGGCGCAUAAA [Exclusion 1 V10] (puzzle: Exclusion 1),26.9 nM,33.1 nM,31.1 nM,–,–,–
"GAGUGAGCGUGAGGAAUAUACAUGAGGAUCACCCAUGUUUGCUAAUAUAUUGCUCGUCUUAUAACAACAAUUAACUG [Mod-hoo-honey#ab] (Eterna round: R97, puzzle: Sensor, turn-off variant 1)",–,–,–,12.6 nM,–,13.7 nM
"GAGUGCUGAGGAUAUACAUGAGGAUCACCCAUGUGCUUCAGCUAGGAGACUAGCUUUGGUAGAAGGCAGUACUC [Mod of lroppy 23 - Jieux - Exclusion 3] (Eterna round: R97, puzzle: Exclusion 3)",–,–,–,49.4 nM,–,14.2 nM
"GAGUUAACAUGAGGAAUAUACAUGAGGAUCACCCAUGUUAACAAAUUUAUUGCUCGUCUUAUAACAACAAUUAACUC [Alarm 5 - Jieux - Sensor, turn-off variant 1] (Eterna round: R97, puzzle: Sensor, turn-off variant 1)",–,–,–,105 nM,–,111 nM
"GAGUUAACGUGAGGAAUAUACAUGAGGAUCACCCAUGUUAACAAAUUUAUUGCUCGUCUUAUAACAACAAUUAACUC [Alarm 6 - Jieux - Sensor, turn-off variant 1] (Eterna round: R97, puzzle: Sensor, turn-off variant 1)",–,–,–,23 nM,–,27.7 nM
"GAGUUACAUGAGGAUCACCCAUGUGAGGAUAUGAGUCAGUCACGGUGACGUGGCUGACUCAGAAGGCACAAUGG [Mat - Exclusion 1 - JL Mod - D46] (Eterna round: R97, puzzle: Exclusion 1)",–,–,–,256 nM,–,380 nM
GAUAAGGUAGGAUAUACGAAUAAAAAGGGUAGAAGAAGAACACAUGAGGAUCACCCAUGUAGAAGGACCAAGAG [Mat - Exclusion 2 - Mod of my Tesla design - D23] (puzzle: Exclusion 2),43 nM,20.6 nM,19.6 nM,–,–,–
"GAUAGGGCAGGAUAUCGAGAUCCGCACAUGAGGAUCACCCAUGUUCGGUCGAAAGACCGACGAGAAGGGCCGUAUC [Omei Ex5 E6] (Eterna round: R97, puzzle: Exclusion 5)",–,–,–,698 nM,–,536 nM
GAUCAACAUGAGGAUCACCCAUGUGAGGAUAUGAUACUAUGUACUUCGGUACAUAGUAUCAGAAGGCACAUAAA [Ex1-3: 38] (puzzle: Exclusion 1),–,72.4 nM,–,–,–,–
"GAUCAUGCAGGAUAUACAUGAACCAUGAAAACAUGGUUUUCACAUGAGGAUCACCCAUGUAGAAGGGCAUGAUC [Omei Ex2 A7] (Eterna round: R97, puzzle: Exclusion 2)",–,–,–,183 nM,–,56.7 nM
"GAUCAUGCAGGAUAUACAUGGAACAUGUAAACAUGAAUUUCACAUGAGGAUCACCCAUGUAGAAGGGCAUGAUC [Omei Ex2 A13] (Eterna round: R97, puzzle: Exclusion 2)",–,–,–,314 nM,–,2200 nM
"GAUCCACAUGAGGAUCACCCAUGUUAGGAUAUUCAGCCUUGGUCACGGGAGUCAGGGCGGAGAAGGAACCCUUU [Eternabot (L2) Solution 16] (Eterna round: R97, puzzle: Exclusion 1)",–,–,–,14.4 nM,–,13 nM
"GAUCCUCAGACGGACGUCACGAAACAUGAGGAUCACCCAUGUGAGGAUAUCUCCAAAAGGUCGGCAGAGAAGGCACCAUAACAA [Eternabot solution 19] (Eterna round: R96, puzzle: Exclusion NG 3)",–,–,–,261 nM,131 nM,139 nM
